Results on one substance are retold here after paper doi:10.1101/2025.06.25.661518.

For data set [1], the system named is BALF2 wild type (Epstein-Barr virus (EBV)). The experiment in a line: fluorescence anisotropy. Particulars: not in material (Methods absent); anisotropy titrations in triplicate.
Data set [2] relates to BALF2 Δ52 (Epstein-Barr virus (EBV)). The experiment in a line: fluorescence anisotropy. Particulars: not in material (Methods absent); anisotropy titrations in triplicate. (In general: Fluorescence polarisation rises when a labelled molecule tumbles more slowly, as on binding a larger partner.)

As a reminder, the Kd is the concentration at which binding is half-saturated. Turning to 16-mer ssDNA, the equilibrium dissociation constant (Kd) in data set [1] was found to be 232 nM; in data set [2], 1040 nM.
